Experiment [1] deals with Thr1-P form of the Spt5 CTD peptide (S. pombe). The experiment can be described thus: pull-down; biotinylated peptides (50 µg) on streptavidin Dynabeads incubated with 50-200 ng TAP-purified factor in 200 µl (20 mM Hepes pH 7.6, 37.5 mM KOAc, 2.5 mM MgOAc, 5% glycerol, 0.075% Triton X-100), 4°C, 1 h; washes with 250 mM KOAc; immunoblot with a TAP antibody; percent bound by ImageJ.

Experiment [2] concerns the target unmodified Spt5 CTD peptide (S. pombe). The experiment is described as above.

“Prf1-CBP (TAP-purified, native Prf1) (natural protein)”: the values for the percent bound in experiment [1] and in experiment [2] were 35% and 10%, respectively.

For the substance “PAF complex purified from the tpr1-TAP strain (from UniProt O42668 1-1039; Q9UUE7 1-371)”, the percent bound in experiment [2] was found to be 5%.

Values taken from publication PMC3873232.
